Tests used:
integrin αvβ3 = system: integrin αvβ3; design: method as in PMID 28074920; conditions: cited from earlier work
[1] = EDTA-based 89Zr complex challenge experiments (relative kinetic inertness, radio-HPLC); assay type: physicochemical; conditions: 10,000 eq. of EDTA, pH 7.0, 25 °C, transchelation monitored for up to 54 h by radio-HPLC
Protocol: For each challenge experiment, three separate solutions of EDTA (14.61 mg, 50 µmol EDTA) in HEPES buffer (0.25 M, pH = 7.0, 380 µL) were prepared. The pH of the solutions was adjusted to pH 7.0 by the addition of a NaOH solution (30%, 12.5 µL), and Tracepur water (7.5 µL) was added to give a final volume of 400 µL of the EDTA solutions. To these solutions was added a solution of the respective ^89Zr-labeled peptide conjugate (5 nmol, 9.7–13.9 MBq), and the solutions were kept at 25 °C over the course of the experiment. At predefined time points, each solution was analyzed by analytical radio-HPLC for determination of the amount of ^89Zr transchelation. Each experiment was performed at least twice, each in triplicate.
In order to directly compare and assess the kinetic inertness of the formed ^89Zr complexes of [^89Zr]Zr-29–[^89Zr]Zr-32, we performed complex challenge experiments using EDTA as the challenging agent of [^89Zr]Zr-30–[^89Zr]Zr-32 in comparison to [^89Zr]Zr-29 serving as the gold standard. […]

[2] = Determination of logD(7.4), distribution between n-octanol and phosphate buffer pH 7.4; assay type: physicochemical; conditions: n-octanol / 0.05-M phosphate buffer pH 7.4; 89Zr-labeled peptide-chelator conjugate
Protocol: To a mixture of 1-octanol (800 µL) and 0.05-M phosphate buffer (775 µL, pH 7.4), a solution of the respective ^89Zr-labeled peptide conjugate (5µL of the before-obtained product solution, 0.8–1.2 MBq, 0.37–0.45 nmol) was added. The mixture was vigorously shaken for two minutes. Afterwards, the phases were separated by centrifugation. Two hundred microliters of each, the organic and the aqueous, phase were measured in a gamma counter. Each experiment was performed at least thrice, each in duplicate.
The logD(7.4) values of the ^89Zr-labeled peptide–chelator conjugates were determined by their distribution coefficient between n-octanol and phosphate buffer at pH 7.4.

Question: For c(RGDfK), which “affinity for integrin αvβ3” value (integrin αvβ3) is on record?
Answer: high affinity

Question: For `CC(=O)N(O)CCCCCNC(=O)CCC(=O)N(O)CCCCCNC(=O)CCC(=O)N(O)CCCCCNC(=O)CCC(=O)NCc1ccc(-c2nncc3c2CCC(OC(=O)NCCCC[C@@H]2NC(=O)[C@@H](Cc4ccccc4)NC(=O)[C@H](CC(=O)O)NC(=O)CNC(=O)[C@H](CCCNC(=N)N)NC2=O)CCC3)cc1` (some centres unmarked) [[^89Zr]Zr-29, metal not drawn], which “kinetic inertness of the 89Zr complex against EDTA challenge” value [1] is on record?
Answer: limited inertness and rapid transfer of the radiometal to EDTA

Question: What about the logD [2] of the same compound?
Answer: -2.32 ± 0.21

Question: With `CC(=O)N(O)CCCCCNC(=O)CCC(=O)N(O)CCCCCNC(=O)CCC(=O)N(O)CCCCCNC(=O)CCC(=O)N(O)CCCCCNC(=O)CCC(=O)NCc1ccc(-c2nncc3c2CCC(OC(=O)NCCCC[C@@H]2NC(=O)[C@@H](Cc4ccccc4)NC(=O)[C@H](CC(=O)O)NC(=O)CNC(=O)[C@H](CCCNC(=N)N)NC2=O)CCC3)cc1` (some centres unmarked) [[^89Zr]Zr-31, metal not drawn] as the compound, how does the “kinetic inertness of the 89Zr complex against EDTA challenge” value [1] read?
Answer: high resistance to the challenge

Question: And the logD [2]?
Answer: -2.49 ± 0.03

Source: PMC8699488, “Side-by-Side Comparison of Five Chelators for ^89Zr-Labeling of Biomolecules: Investigation of Chemical/Radiochemical Properties and Complex Stability” (Cancers, 2021)
